Columns and labels:
[1] = molecular target: T1, recombinant protein of the extracellular region of hTROP-2 (human); experiment: ELISA of free antibody after equilibration with antigen in solution
T1 sequence: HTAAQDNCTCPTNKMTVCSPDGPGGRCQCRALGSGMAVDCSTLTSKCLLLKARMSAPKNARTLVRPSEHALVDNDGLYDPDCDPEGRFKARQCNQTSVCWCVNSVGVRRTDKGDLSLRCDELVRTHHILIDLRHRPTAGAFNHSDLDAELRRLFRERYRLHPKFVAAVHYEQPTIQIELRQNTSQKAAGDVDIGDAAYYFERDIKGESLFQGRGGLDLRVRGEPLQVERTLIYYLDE

human TROP-2 (hTROP-2) [2] = molecular target: T2, human TROP-2 (hTROP-2) (human); experiment: FACS on BxPC-3 cells
T2 chain: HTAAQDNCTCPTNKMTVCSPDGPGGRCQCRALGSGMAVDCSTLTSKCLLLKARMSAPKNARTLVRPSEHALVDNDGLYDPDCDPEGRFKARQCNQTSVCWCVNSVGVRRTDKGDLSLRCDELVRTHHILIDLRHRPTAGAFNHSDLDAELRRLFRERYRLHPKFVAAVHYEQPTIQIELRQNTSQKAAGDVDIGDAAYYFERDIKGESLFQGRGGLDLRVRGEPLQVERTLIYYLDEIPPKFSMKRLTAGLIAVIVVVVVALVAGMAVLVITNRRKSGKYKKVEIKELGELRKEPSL

Table 11 peptide No. 16 = Table 11 peptide No. 16 (human); experiment: PEPSCAN CLIPS peptide ELISA
Sequence of Table 11 peptide No. 16 (human) (peptide, as listed by the source): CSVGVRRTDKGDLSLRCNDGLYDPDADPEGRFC

Table 11 peptide No. 25 = molecular target: T3, Table 11 peptide No. 25 (human); experiment: PEPSCAN CLIPS peptide ELISA
T3 peptide: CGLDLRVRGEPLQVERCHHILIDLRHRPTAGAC

Table 11 peptide No. 26 = molecular target: T4, Table 11 peptide No. 26 (human); experiment: PEPSCAN CLIPS peptide ELISA
T4 peptide: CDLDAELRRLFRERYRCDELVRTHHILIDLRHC

Table 11 peptide No. 14 = molecular target: T5, Table 11 peptide No. 14 (human); experiment: PEPSCAN CLIPS peptide ELISA
T5 peptide: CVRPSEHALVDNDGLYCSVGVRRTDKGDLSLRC

Table 11 peptide No. 23 = molecular target: T6, Table 11 peptide No. 23 (human); experiment: PEPSCAN CLIPS peptide ELISA
T6 peptide: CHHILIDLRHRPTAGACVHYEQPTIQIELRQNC

Table 11 peptide No. 11 = molecular target: T7, Table 11 peptide No. 11 (human); experiment: PEPSCAN CLIPS peptide ELISA
T7 peptide: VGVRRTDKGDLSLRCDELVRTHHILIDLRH

Table 11 peptide No. 10 = molecular target: T8, Table 11 peptide No. 10 (human); experiment: PEPSCAN CLIPS peptide ELISA
T8 peptide: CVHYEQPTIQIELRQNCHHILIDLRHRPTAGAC

Table 11 peptide No. 3 = molecular target: T9, Table 11 peptide No. 3 (human); experiment: PEPSCAN CLIPS peptide ELISA
T9 peptide: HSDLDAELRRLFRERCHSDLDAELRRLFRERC

Table 11 peptide No. 8 = molecular target: T10, Table 11 peptide No. 8 (human); experiment: PEPSCAN CLIPS peptide ELISA
T10 peptide: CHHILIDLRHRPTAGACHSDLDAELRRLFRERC

Table 11 peptide No. 12 = molecular target: T11, Table 11 peptide No. 12 (human); experiment: PEPSCAN CLIPS peptide ELISA
T11 peptide: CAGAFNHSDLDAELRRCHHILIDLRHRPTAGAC

Table 11 peptide No. 1 = molecular target: T12, Table 11 peptide No. 1 (human, not fully specified); experiment: PEPSCAN CLIPS peptide ELISA
T12 peptide: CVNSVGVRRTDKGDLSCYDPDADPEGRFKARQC

Table 11 peptide No. 13 = molecular target: T13, Table 11 peptide No. 13 (human); experiment: PEPSCAN CLIPS peptide ELISA
T13 peptide: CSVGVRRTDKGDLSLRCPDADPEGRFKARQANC

Table 11 peptide No. 6 = molecular target: T14, Table 11 peptide No. 6 (human); experiment: PEPSCAN CLIPS peptide ELISA
T14 peptide: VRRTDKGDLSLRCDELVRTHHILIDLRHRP

Table 11 peptide No. 18 = molecular target: T15, Table 11 peptide No. 18 (human); experiment: PEPSCAN CLIPS peptide ELISA
T15 peptide: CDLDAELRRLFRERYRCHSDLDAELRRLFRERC

Table 11 peptide No. 20 = molecular target: T16, Table 11 peptide No. 20 (human); experiment: PEPSCAN CLIPS peptide ELISA
T16 peptide: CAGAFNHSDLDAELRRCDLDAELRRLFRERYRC

Table 11 peptide No. 15 = molecular target: T17, Table 11 peptide No. 15 (human); experiment: PEPSCAN CLIPS peptide ELISA
T17 peptide: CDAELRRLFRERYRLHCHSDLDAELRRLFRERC

Table 11 peptide No. 21 = molecular target: T18, Table 11 peptide No. 21 (human); experiment: PEPSCAN CLIPS peptide ELISA
T18 peptide: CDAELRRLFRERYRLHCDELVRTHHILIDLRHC

Table 11 peptide No. 7 = molecular target: T19, Table 11 peptide No. 7 (human); experiment: PEPSCAN CLIPS peptide ELISA
T19 peptide: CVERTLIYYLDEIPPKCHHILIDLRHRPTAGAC

Table 11 peptide No. 24 = Table 11 peptide No. 24 (human); experiment: PEPSCAN CLIPS peptide ELISA
Sequence of Table 11 peptide No. 24 (human) (peptide, as listed by the source): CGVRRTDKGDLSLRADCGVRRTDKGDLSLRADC

Table 11 peptide No. 9 = molecular target: T20, Table 11 peptide No. 9 (human); experiment: PEPSCAN CLIPS peptide ELISA
T20 peptide: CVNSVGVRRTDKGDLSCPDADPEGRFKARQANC

Table 11 peptide No. 17 = molecular target: T21, Table 11 peptide No. 17 (human); experiment: PEPSCAN CLIPS peptide ELISA
T21 peptide: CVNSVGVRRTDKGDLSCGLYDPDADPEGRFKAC

Table 11 peptide No. 4 = molecular target: T22, Table 11 peptide No. 4 (human); experiment: PEPSCAN CLIPS peptide ELISA
T22 peptide: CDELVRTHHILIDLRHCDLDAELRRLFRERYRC

Table 11 peptide No. 22 = molecular target: T23, Table 11 peptide No. 22 (human); experiment: PEPSCAN CLIPS peptide ELISA
T23 peptide: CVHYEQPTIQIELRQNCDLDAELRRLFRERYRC

Table 11 peptide No. 19 = molecular target: T24, Table 11 peptide No. 19 (human); experiment: PEPSCAN CLIPS peptide ELISA
T24 peptide: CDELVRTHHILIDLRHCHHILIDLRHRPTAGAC

Table 11 peptide No. 2 = molecular target: T25, Table 11 peptide No. 2 (human); experiment: PEPSCAN CLIPS peptide ELISA
T25 peptide: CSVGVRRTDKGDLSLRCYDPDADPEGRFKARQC

human TROP-2 (hTROP-2) [3] = molecular target: T2, human TROP-2 (hTROP-2); experiment: FACS on PK-59 cells

B1: anti-hTROP-2 monoclonal antibody T6-16 (antibody, V domains shown)
VH: EVQLQQSGPELVKPGASVKISCKASGYTFTDYNMHWVKQSHGKNLEWIGYIYPYNGGTGYNQRFKSRATMTVDKSSSTAYMELRSLTSDDSAVYYCAREDYGSSPSYAMDYWGQGTSVIVSS
VL: DVVMTQTPLSLPVSLGDQASISCRSSQSLVHGNGNTYLHWYLQKPGQSPKLLIYKVSNRFSGVPDRFSGSGSGTDFTLKISRVEAEDLGVYFCSQTTHVPTFGSGTKLEIK
Kd [1]: 4.3 pM
mean fluorescence intensity, times that with PE-labeled anti-mouse IgG only (human TROP-2 (hTROP-2) [2]): 25 times
binding of T6-16 (Table 11 peptide No. 16): 559
binding of T6-16 (Table 11 peptide No. 25): 521
binding of T6-16 (Table 11 peptide No. 26): 516
binding of T6-16 (Table 11 peptide No. 14): 573
binding of T6-16 (Table 11 peptide No. 23): 524
binding of T6-16 (Table 11 peptide No. 11): 601
binding of T6-16 (Table 11 peptide No. 10): 602
binding of T6-16 (Table 11 peptide No. 3): 714
binding of T6-16 (Table 11 peptide No. 8): 620
binding of T6-16 (Table 11 peptide No. 12): 592
binding of T6-16 (Table 11 peptide No. 1): 1070
binding of T6-16 (Table 11 peptide No. 13): 585
binding of T6-16 (Table 11 peptide No. 6): 670
binding of T6-16 (Table 11 peptide No. 18): 534
binding of T6-16 (Table 11 peptide No. 20): 529
binding of T6-16 (Table 11 peptide No. 15): 566
binding of T6-16 (Table 11 peptide No. 21): 527
binding of T6-16 (Table 11 peptide No. 7): 626
binding of T6-16 (Table 11 peptide No. 24): 524
binding of T6-16 (Table 11 peptide No. 9): 611
binding of T6-16 (Table 11 peptide No. 17): 553
binding of T6-16 (Table 11 peptide No. 4): 713
binding of T6-16 (Table 11 peptide No. 22): 526
binding of T6-16 (Table 11 peptide No. 19): 534
binding of T6-16 (Table 11 peptide No. 2): 786
mean fluorescence intensity, times that with PE-labeled anti-mouse IgG only (human TROP-2 (hTROP-2) [3]): 59 times
